One assay concerns the target T1, Human CEACAM1 (human, UniProt P13688 35-428, limits assumed).
T1 sequence (looked up): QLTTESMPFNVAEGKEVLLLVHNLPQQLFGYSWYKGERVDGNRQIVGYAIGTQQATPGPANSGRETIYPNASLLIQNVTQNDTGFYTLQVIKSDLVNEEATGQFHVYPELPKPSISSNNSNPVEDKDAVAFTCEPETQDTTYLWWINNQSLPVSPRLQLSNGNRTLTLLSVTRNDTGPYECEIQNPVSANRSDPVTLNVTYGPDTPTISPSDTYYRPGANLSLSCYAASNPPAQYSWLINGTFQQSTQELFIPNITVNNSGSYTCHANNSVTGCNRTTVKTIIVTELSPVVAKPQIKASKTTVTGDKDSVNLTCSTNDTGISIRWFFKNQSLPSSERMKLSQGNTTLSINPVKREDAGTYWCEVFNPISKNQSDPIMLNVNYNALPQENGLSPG
The assay is described as follows: SPR, 37C, pH 7.4. The protocol:
To determine the affinity and cross-reactivity of CEACAM5 TriNKET molecules, AB0411, AB0466, or AB0621 TriNKETs were captured using an anti-human Fc capture antibody (Cytiva, #BR100839) immobilized onto a Biacore CM5 standard surface sensor chip following manufacturer instructions. Human or cynomolgus CEACAM5 were titrated over captured AB0411, AB0466, and AB0621 as 2-fold serial dilutions starting from 300 nM. Association was monitored for 300 sec and dissociation was monitored for 600 sec. The assay was run at 37° C. at pH 7.4 and 6.0. The surface of the CM5 chip was regenerated with 10 mM glycine pH 1.5 for 20 sec at 100 μL/min.
Binding to human and cynomolgus CEACAM1, 6, and 8 was assessed by SPR using the same protocol as for CEACAM5 but using up to 600 and 1200 nM for titration of each protein. There were no detectable binding signals at these concentrations for AB0621. In contrast, reproducible weak binding signals were detected for AB0411 and AB0466, but these two TriNKETs also bound to different epitope(s) on the N-terminus of CEACAM5. Typical weak binding sensorgrams for AB0411 and AB0466 against human CEACAM1 and 6 indicated weak but notable signals compared to AB0621. […]

The next assay concerns the target T2, CEACAM5 A1-B1-Fc (human, UniProt P06731 145-322, limits assumed).
T2 construct: also called A1-B1 domain
T2 sequence: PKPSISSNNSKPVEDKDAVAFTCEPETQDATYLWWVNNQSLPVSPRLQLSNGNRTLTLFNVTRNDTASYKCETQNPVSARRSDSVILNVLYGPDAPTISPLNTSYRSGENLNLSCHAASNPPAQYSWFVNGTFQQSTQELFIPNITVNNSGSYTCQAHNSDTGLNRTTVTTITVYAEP
The assay can be described thus: SPR, Fab capt, 25C. The protocol:
If the protein domain was an Fc fusion, AB0411, AB0466, AB0264, or AB0621 were captured using an anti-human Fab antibody (Cytiva, #28958325) immobilized onto a CM5 chip. The various hCEACAM5 protein domains (N-term, A1-B1, A2, B2, A3, or B3) were titrated over the captured TriNKETs at 50 μL/min for 180 sec of association and 300 sec of dissociation. The assay was run at 25° C. in HBS-EP+ running buffer, pH 7.4. The surface of the CM5 chip was regenerated using […] glycine pH 2.1.

In assay [1] the target is T3, cynomolgus CEACAM5 on Ba/F3 cells (cynomolgus monkey).
T3 construct: whole, on cells
The assay is described as follows: flow cytometry on Ba/F3 cells expressing cynomolgus CEACAM5, fold over background (FOB), 5-fold dilutions from 1600 nM. The procedure: To examine the binding specificity of the TriNKETs to CEACAM5 compared to other CEACAM family members, Ba/F3 cells were engineered to express one of human CEACAM1, CEACAM6, CEACAM8, or cynomolgus CEACAM5. CEACAM5 TriNKETs were evaluated by flow cytometry starting at 1600 nM followed by 7 5-fold dilutions.

Assay [2] has as its target T4, human CEACAM5 on cells (human, UniProt P06731 35-685).
T4 construct: tumour cell lines with endogenous CEACAM5, or B16F10 engineered to express hCEACAM5; also called CEACAM5 on MKN-45, HPAF-II, SK-CO-1, LoVo, BxPC-3, Kato-III, LS-174T, ZR-75-30; hCEACAM5-B16F10
T4 sequence: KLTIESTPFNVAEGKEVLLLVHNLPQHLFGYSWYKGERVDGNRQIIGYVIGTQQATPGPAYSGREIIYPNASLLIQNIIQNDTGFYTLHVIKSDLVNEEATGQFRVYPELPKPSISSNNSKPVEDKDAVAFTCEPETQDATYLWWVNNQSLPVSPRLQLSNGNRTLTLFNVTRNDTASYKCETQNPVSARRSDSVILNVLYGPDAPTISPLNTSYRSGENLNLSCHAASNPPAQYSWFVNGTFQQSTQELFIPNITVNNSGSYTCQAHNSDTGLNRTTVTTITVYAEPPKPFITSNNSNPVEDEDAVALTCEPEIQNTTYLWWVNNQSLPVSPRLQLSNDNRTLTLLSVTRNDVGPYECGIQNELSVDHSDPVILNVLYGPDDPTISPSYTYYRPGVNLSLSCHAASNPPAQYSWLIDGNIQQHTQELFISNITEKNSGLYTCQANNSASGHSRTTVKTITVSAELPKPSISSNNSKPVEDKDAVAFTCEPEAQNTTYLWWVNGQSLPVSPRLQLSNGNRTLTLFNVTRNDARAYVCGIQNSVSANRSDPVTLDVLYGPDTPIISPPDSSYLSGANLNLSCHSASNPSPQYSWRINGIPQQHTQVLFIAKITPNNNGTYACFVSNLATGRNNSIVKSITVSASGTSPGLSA
The assay is described as follows: flow cytometry, BxPC-3 cells.

In assay [3] the target is T4, human CEACAM5 on cells. The assay is described as follows: flow cytometry, MKN-45 cells.
Assay [4] has as its target T4, human CEACAM5 on cells. The assay can be described thus: flow cytometry, SK-CO-1 cells.
The target of assay [5] is T4, human CEACAM5 on cells. The assay is described as follows: flow cytometry, Kato-III cells.

Where a chain is given by its changes, count along the chain named.

B1: AB0621 F3' CEACAM5 TriNKET (bispecific antibody, human IgG1, kappa)
chain: DIVMTQSPDSLAVSLGERATINCKSSHSLLYGNFQNNYLAWYQQKPGQPPKLLIYWASTRESGVPDRFSGSGSGTDFTLTISSLQAEDVAVYYCQQYYSYPYTFGCGTKLEIKGGGGSGGGGSGGGGSGGGGSQVQLVQSGAEVKKPGASVKVSCKASGYTFTAYTIHWVRQAPGQCLEWMGYINPSSGYTEYNQKFKDRTTLTADTSISTAYMELSRLRSDDTAVYYCTREGGLLWFDYWGQGTLVTVSSGSDKTHTCPPCPAPELLGGPSVFLFPPKPKDTLMISRTPEVTCVVVDVSHEDPEVKFNWYVDGVEVHNAKTKPREEQYNSTYRVVSVLTVLHQDWLNGKEYKCKVSNKALPAPIEKTISKAKGQPREPRVYTLPPCRDELTKNQVSLTCLVKGFYPSDIAVEWESNGQPENNYKTTPPVLVSDGSFTLYSKLTVDKSRWQQGNVFSCSVMHEALHNHYTQKSLSLSPG
heavy: EVQLVESGGGLVKPGGSLRLSCAASGFTFSSYSMNWVRQAPGKGLEWVSSISSSSSYIYYADSVKGRFTISRDNAKNSLYLQMNSLRAEDTAVYYCARGAPIGAAAGWFDPWGQGTLVTVSSASTKGPSVFPLAPSSKSTSGGTAALGCLVKDYFPEPVTVSWNSGALTSGVHTFPAVLQSSGLYSLSSVVTVPSSSLGTQTYICNVNHKPSNTKVDKKVEPKSCDKTHTCPPCPAPELLGGPSVFLFPPKPKDTLMISRTPEVTCVVVDVSHEDPEVKFNWYVDGVEVHNAKTKPREEQYNSTYRVVSVLTVLHQDWLNGKEYKCKVSNKALPAPIEKTISKAKGQPREPQVCTLPPSRDELTENQVSLTCLVKGFYPSDIAVEWESNGQPENNYKTTPPVLDSDGSFFLYSWLTVDKSRWQQGNVFSCSVMHEALHNHYTQKSLSLSPG
light: DIQMTQSPSSVSASVGDRVTITCRASQGISSWLAWYQQKPGKAPKLLIYAASSLQSGVPSRFSGSGSGTDFTLTISSLQPEDFATYYCQQGVSFPRTFGGGTKVEIKRTVAAPSVFIFPPSDEQLKSGTASVVCLLNNFYPREAKVQWKVDNALQSGNSQESVTEQDSKDSTYSLSSTLTLSKADYEKHKVYACEVTHQGLSSPVTKSFNRGEC
B1: the binding result with Human CEACAM1 is “no binding (tested: up to 600 and 1200 nM)”. In the assay with CEACAM5 A1-B1-Fc, binding was put at a Kd of 1.5 nM and the kon turned out to be 250000 M⁻¹ s⁻¹. The “EC50 (read off the curve)” value in assay [1] was approximately 50 nM.

B2: AB0411 F3' CEACAM5 TriNKET (bispecific antibody, human IgG1, kappa)
chain: DIQLTQSPATLSVSPGERATLSCRASQSVSSSYLAWYQQKPGQAPRLLIYGASSRATGIPDRFSGSGSGTDFTLTISRLEPEDFAVYYCQQYNNWPLTFGCGTKVEIKGGGGSGGGGSGGGGSGGGGSQVQLVQSGGGLVQPGGSLRLSCAASGFTFTSYAMSWVRQAPGKCLEWVSAISGTGDSTFYADSVKGRFTFSRDNSKNTLYLQMNSLRAEDTAVYYCAKDLGWLQYGLFDYWGQGTLVTVSSGSDKTHTCPPCPAPELLGGPSVFLFPPKPKDTLMISRTPEVTCVVVDVSHEDPEVKFNWYVDGVEVHNAKTKPREEQYNSTYRVVSVLTVLHQDWLNGKEYKCKVSNKALPAPIEKTISKAKGQPREPRVYTLPPCRDELTKNQVSLTCLVKGFYPSDIAVEWESNGQPENNYKTTPPVLVSDGSFTLYSKLTVDKSRWQQGNVFSCSVMHEALHNHYTQKSLSLSPG
heavy: B1 heavy
light: B1 light
Turning to B2, the EC50 worked out at 4.28 nM in the assay with human CEACAM5 on cells [2], 9.05 nM in the assay with human CEACAM5 on cells [3], 8.67 nM in the assay with human CEACAM5 on cells [4] and 1.17 nM with human CEACAM5 on cells [5]. Also, the “Max FOB” value in the assay with human CEACAM5 on cells [2] was 19 fold over background; in the assay with human CEACAM5 on cells [3] it was 107 fold over background; with human CEACAM5 on cells [4] it was 37 fold over background; with human CEACAM5 on cells [5], 5 fold over background.

B3: AB0264 F3' CEACAM5 TriNKET (bispecific antibody, human IgG1, kappa)
chain: B1 chain with S210P
heavy: B1 heavy
light: B1 light
With B3, in the assay with Human CEACAM1, the binding result was “no binding (tested: up to 600 and 1200 nM)”. Moreover, the Kd in the assay with CEACAM5 A1-B1-Fc came to 1 nM. Also, in the assay with CEACAM5 A1-B1-Fc, the kon was found to be 260000 M⁻¹ s⁻¹. In addition, the EC50 stood at 30.5 nM with human CEACAM5 on cells [2], 20.7 nM with human CEACAM5 on cells [3], 104 nM with human CEACAM5 on cells [4] and 13.3 nM with human CEACAM5 on cells [5]. The “Max FOB” value in the assay with human CEACAM5 on cells [2] was 12 fold over background; with human CEACAM5 on cells [3], 60 fold over background; with human CEACAM5 on cells [4], 42 fold over background; in the assay with human CEACAM5 on cells [5], 4 fold over background. For the same molecule, in assay [1], the “EC50 (read off the curve)” value is approximately 40 nM.

The values above are taken from patent US20240124607A1 (Merck Sharp & Dohme, published 2024).
